Reference: the supplement of paper PMC10567573

B1: USP39 (parent)
chain: FVEKNPTIVNFPITNVDLREYLSE
B2: CLCN6 (parent)
chain: ILRSQLVTLLVRGVCYSESQSSAS

Variants of: B1
Assay: protein stability index of a GFP-peptide fusion (GPS, HEK-293T) (PSI 1-6); higher = more stable
Details: c terminus: a fixed tail appended
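Also: lentivirally expressed fusions sorted by FACS into six bins by GFP to DsRed ratio, PSI derived from sequencing read proportions per bin multiplied by bin number.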

Protein stability index: each site, then its substitutions
E24: Y 1.84 | W 1.93

Variants of: B2
Assay: as above
Details: c terminus: a fixed tail appended

Protein stability index of substitutions, site by site:
S24: R 2.78 | W 2.9 | N 2.4 | Q 1.85 | T 2.7 | D 2.68 | M 4.04 | V 2.87 | F 3.24 | G 3.21 | P 3.9
S17: F 2.25 | G 2.54 | Q 1.98 | H 3 | P 2.5 | Y 2.78 | N 3.71 | L 4.34 | T 2.24 | D 2.43 | E 2.11 | I 3.39 | A 2.45 | R 2.36 | K 2.16
A23: Y 3 | Q 3.96 | W 4.14 | M 2.75 | F 3.27 | E 2.41 | K 2.29 | D 4.03 | H 2.38 | N 4.11 | V 1.81 | C 2.96 | T 2 | S 2.38 | P 3.09
Y16: P 3.6 | T 3.87 | S 2.22 | V 2.94 | C 2.31 | A 3.1 | R 3.34 | H 2.77 | K 1.32 | I 2.94 | D 2.09 | L 3.45 | N 2.37 | E 1.94
S4: L 2.56 | W 3.61 | M 2.78 | N 2.54 | Y 2.3 | T 2.68 | D 2.21 | K 2.19 | I 3.85 | H 3.41 | E 3.85 | V 2.58
V7: E 2.37 | D 2.45 | H 2.63 | P 1.98 | T 2.46 | G 1.75 | N 1.99 | W 1.96 | C 2.66 | R 2.57 | Y 3.04 | A 2.81 | S 2.18 | K 2.23 | L 3.31 | I 2.83 | M 2.25 | Q 2.43
S22: R 3.39 | I 2.29 | K 3.18 | M 3.01 | P 2.17 | N 1.92 | A 1.76 | V 2.66 | Y 3.28 | D 1.44 | H 3.54 | Q 3.86 | T 2.11 | F 4.37
T8: C 3.51 | N 2.15 | V 2.62 | G 2.01 | M 2.8 | H 2.18 | Y 2.21 | S 2.29 | L 1.83 | P 2.12 | K 2.88 | E 3.03 | R 2.81
V11: S 1.78 | R 2.01 | T 2.8 | D 2.02 | W 2.92 | C 2.1 | H 2.78 | G 2.39 | M 3.46 | Q 2 | K 2 | A 2.77 | L 4.2 | P 2.1 | Y 2.19 | E 1.54 | N 3.1
L2: C 3.49 | I 3.02 | N 2.06 | P 2.01 | K 2.42 | H 1.3 | D 1.66 | Q 2.62 | E 1.93 | M 3.88 | F 2.44 | Y 3.62 | S 3.23 | R 1.95 | G 2.64
L6: Y 2.02 | D 1.55 | S 1.42 | W 3.18 | M 1.98 | G 2.86 | K 2.08 | I 2.86 | A 2.2 | N 1.76 | R 2.67 | E 1.88 | V 1.64 | T 2 | F 2.41 | P 2.04 | C 3.02 | Q 1.66
R12: N 1.67 | P 2.67 | T 2.56 | D 2 | W 2.29 | L 3.03 | S 3.78 | I 2.68 | V 3.56 | K 3.37 | A 2.38 | H 4.29
Q20: W 2.38 | K 4.02 | A 4.07 | T 1.8 | G 3.74 | D 1.56 | L 2.77 | F 2.4 | E 3.06 | I 1.93 | C 4.15 | Y 3.72 | H 2.27 | V 2.68
S21: P 1.34 | I 2.59 | E 4.5 | K 2.66 | A 3.29 | F 2.54 | L 2.14 | M 2.12 | Y 2.89 | W 3.14
L9: S 1.6 | F 4.09 | P 2.21 | K 1.99 | W 2.83 | A 3.4 | N 1.59 | D 1.77 | R 1.6 | Q 1.69 | H 1.39 | M 2.5 | E 1.94 | G 1.8 | T 2.92 | C 3.61
Q5: Y 3.81 | N 3.29 | D 2.31 | P 2.72 | V 2.98 | K 2.79 | A 1.97 | E 3.8 | S 3.4 | C 3.81 | F 2.23 | M 3.17 | W 1.44
C15: P 2.23 | K 1.13 | G 3.11 | Y 4.15 | F 4.46 | A 3.2 | N 1.57 | R 3.44 | I 3.23 | H 1.73 | V 5.04 | D 1.89
L10: A 1.07 | T 2.46 | Y 2.23 | N 2.49 | V 1.92 | E 2.53 | K 2.05 | M 2.93 | P 2.52 | I 2.14 | R 2.14 | W 3.87 | C 2.21 | D 1.8 | S 1.31 | H 2.07 | Q 1.72 | G 1.92
V14: W 2.82 | I 2.79 | E 1.47 | H 2.01 | N 1.57 | T 3.29 | Q 3.26 | R 2.67 | K 2.87 | M 1.59 | G 2.1 | F 2.46 | S 2.76
G13: F 4.5 | H 3.18 | W 1.7 | S 2.89 | L 2.53 | R 3.25 | V 3.06 | Q 3.06 | I 2.7 | N 3.53 | P 2.69 | D 3.12
S19: Q 1.79 | H 3.62 | T 4.83 | P 1.82 | M 3.15 | C 3.23 | L 3.29 | W 2.92 | Y 2.44 | G 1.57 | D 2.21 | A 4.08 | F 3.38
E18: Y 2.54 | K 5.27 | R 2.1 | M 2.09 | H 2.13 | W 2.86 | T 4.5 | I 3.81 | A 2.15 | F 5.28 | G 3.04 | D 2.19 | N 3.67 | P 3.08
I1: H 1.82 | W 3.34 | F 3.23 | S 3.03 | C 2.09 | D 3.23 | P 2.04 | M 3.86 | R 2.09 | G 2.2 | L 3.03 | A 3.79 | T 2.87 | K 3.63
R3: P 2.36 | V 2.67 | K 3.85 | W 3.08 | Y 2.72 | C 3.38 | I 3.78 | Q 3.3 | A 2.34
